The experiment has as its target T1, tbd2b_human TBC1D2B (UniProt Q9UPU7).
T1 sequence: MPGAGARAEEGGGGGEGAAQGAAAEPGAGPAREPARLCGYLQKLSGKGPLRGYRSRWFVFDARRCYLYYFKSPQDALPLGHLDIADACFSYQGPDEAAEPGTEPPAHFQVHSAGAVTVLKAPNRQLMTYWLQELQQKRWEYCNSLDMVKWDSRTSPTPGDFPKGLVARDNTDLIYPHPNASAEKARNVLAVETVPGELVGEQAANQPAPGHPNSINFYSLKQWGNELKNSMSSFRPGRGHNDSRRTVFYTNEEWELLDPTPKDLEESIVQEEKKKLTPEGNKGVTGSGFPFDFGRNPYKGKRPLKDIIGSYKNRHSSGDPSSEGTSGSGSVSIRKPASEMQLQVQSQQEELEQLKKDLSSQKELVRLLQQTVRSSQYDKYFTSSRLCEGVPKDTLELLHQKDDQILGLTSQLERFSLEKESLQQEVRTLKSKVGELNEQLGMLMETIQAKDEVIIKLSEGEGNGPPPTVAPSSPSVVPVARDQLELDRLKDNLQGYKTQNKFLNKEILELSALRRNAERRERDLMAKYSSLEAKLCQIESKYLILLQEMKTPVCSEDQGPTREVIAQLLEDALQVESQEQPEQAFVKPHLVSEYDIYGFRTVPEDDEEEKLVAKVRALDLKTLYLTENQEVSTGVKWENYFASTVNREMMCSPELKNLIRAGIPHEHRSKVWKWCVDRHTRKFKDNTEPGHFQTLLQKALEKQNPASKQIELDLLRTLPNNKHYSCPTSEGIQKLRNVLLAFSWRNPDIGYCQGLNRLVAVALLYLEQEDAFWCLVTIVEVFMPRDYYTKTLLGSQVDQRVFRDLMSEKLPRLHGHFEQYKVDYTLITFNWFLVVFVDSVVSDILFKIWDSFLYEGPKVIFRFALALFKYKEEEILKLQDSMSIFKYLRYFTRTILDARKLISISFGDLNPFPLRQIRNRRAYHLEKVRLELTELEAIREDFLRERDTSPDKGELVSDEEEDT

“Microtubule-associated protein 1 light chain 3 beta (Homo sapiens) (from UniProt Q9GZQ8) R69A”: the “effect of a mutation on the interaction” value is on record as “disrupting interaction”.

Source of the values: IntAct's records for PubMed 20562859.
